What was measured:
[1] = target: T1, bRSV F 391-2 sc9 DS-Cav1 Q98C Q361C (bovine RSV, strain 391-2, UniProt P22167 26-513); assay: D25 binding to stressed pre-F trimer as a fraction of the untreated protein (physical stability)
[2] = target: T2, bRSV F ATue51908 DS-Cav1 (bovine RSV, strain ATue51908, UniProt P22167 26-109; P22167 137-513); assay: as above
[3] = target: T3, bRSV F strain 391-2 sc9-10, DS-Cav1, Q98C-Q361C (bovine RSV, strain 391-2); assay: as above
[4] = target: T4, bRSV F ATue51908 sc9-10 DS-Cav1 A149C Y458C (bovine RSV, strain ATue51908 …); assay: as above
[5] = target: T5, bRSV F RB94 DS-Cav1 (bovine RSV, strain RB94, UniProt P23728 26-109; P23728 137-513); assay: as above
[6] = target: T6, bRSV F 391-2 DS-Cav1 (bovine RSV, strain 391-2, UniProt P22167 26-574); assay: as above
[7] = target: sc9-10 DS-Cav1 Q98C, Q361C L95M-I221M-R429K (B18537); assay: BLI (Octet), F on Ni-NTA tips, Fab in solution
[8] = target: sc9-10 DS-Cav1 Q98C, Q361C S46G-E92D-L95M-S215P-I217P-I221M-R429K-K465Q (Long (VR26)); assay: BLI (Octet), F on Ni-NTA tips, Fab in solution
[9] = target: T1, bRSV F 391-2 sc9 DS-Cav1 Q98C Q361C; assay: Fab binding to purified bRSV F trimer (Octet BLI as in Example 1)
[10] = target: T2, bRSV F ATue51908 DS-Cav1; assay: as above
[11] = target: T3, bRSV F strain 391-2 sc9-10, DS-Cav1, …; assay: as above
[12] = target: T4, bRSV F ATue51908 sc9-10 DS-Cav1 A149C …; assay: as above
[13] = target: T5, bRSV F RB94 DS-Cav1; assay: as above
[14] = target: T6, bRSV F 391-2 DS-Cav1; assay: as above
[15] = target: sc9 DS-Cav1-105Q (Engineered disulfide 155C-290C. Glycoprotein; it assembles as a trimer and one protomer is given.); assay: BLI (Octet), F on Ni-NTA tips, Fab in solution
[16] = target: T7, sc9-19 DS-Cav1 (Engineered disulfide 155C-290C. Glycoprotein; it assembles as a trimer and one protomer is given.); assay: BLI (Octet), F on Ni-NTA tips, Fab in solution
[17] = target: RSV F sc9-9 DS-Cav1 (human RSV subtype A (strain A2), UniProt P03420 26-96; P03420 145-513); assay: BLI (Octet), F on Ni-NTA tips, Fab in solution
[18] = target: sc9-24 DS-Cav1; assay: BLI (Octet), F on Ni-NTA tips, Fab in solution
[19] = target: T8, RSV F sc9-10 DS-Cav1 (human RSV subtype A (strain A2)); assay: BLI (Octet), F on Ni-NTA tips, Fab in solution
[20] = target: T7, sc9-19 DS-Cav1; assay: BLI (Octet), D25 Fab binding after/before stress
[21] = target: sc9-24 DS-Cav1; assay: BLI (Octet), D25 Fab binding after/before stress
[22] = target: T8, RSV F sc9-10 DS-Cav1; assay: BLI (Octet), D25 Fab binding after/before stress
[23] = target: sc11 DS-Cav1 (Engineered disulfide 155C-290C. Engineered cysteines 512C/513C. Glycoprotein; one protomer is given.); assay: BLI (Octet), F on Ni-NTA tips, Fab in solution
[24] = target: sc8 DS-Cav1; assay: BLI (Octet), F on Ni-NTA tips, Fab in solution
[25] = target: sc9-10 Cav1only 100-362; assay: ELISA after 1 week at 4 °C
[26] = target: sc9-10 Cav1only 99-362; assay: ELISA after 1 week at 4 °C
[27] = target: sc9-10 Cav1only 98-361; assay: ELISA after 1 week at 4 °C
[28] = target: sc9-10 Cav1only 100-361; assay: ELISA after 1 week at 4 °C
[29] = target: sc9-10 Cav1only 369-455; assay: ELISA after 1 week at 4 °C
[30] = target: sc9-10 Cav1only 146-458; assay: ELISA after 1 week at 4 °C
[31] = target: sc9-10 Cav1only; assay: ELISA after 1 week at 4 °C
[32] = target: RSVF Cav1only; assay: ELISA after 1 week at 4 °C
[33] = target: sc9-10 Cav1only 98-362; assay: ELISA after 1 week at 4 °C
[34] = target: sc9-10 Cav1only 99-361; assay: ELISA after 1 week at 4 °C
[35] = target: sc9-10 N183GC N428C Long CAV1only; assay: ELISA after 1 week at 4 °C
[36] = target: sc9-10 A149C Y458C Long CAV1only; assay: ELISA after 1 week at 4 °C

B1: D25 Fab (Fab, V domains shown)
VH: QVQLVQSGAEVKKPGSSVMVSCQASGGPLRNYIINWLRQAPGQGPEWMGGIIPVLGTVHYAPKFQGRVTITADESTDTAYIHLISLRSEDTAMYYCATETALVVSTTYLPHYFDNWGQGTLVTVSS
VL: DIQMTQSPSSLSAAVGDRVTITCQASQDIVNYLNWYQQKPGKAPKLLIYVASNLETGVPSRFSGSGSGTDFSLTISSLQPEDVATYYCQQYDNLPLTFGGGTKVEIKR
[1]
  fractional antibody reactivity after 10 cycles of freeze-thaw: 1 fraction
  fractional antibody reactivity after 50 °C: 0.9 fraction
  fractional antibody reactivity after 70 °C: 0.8 fraction
  fractional antibody reactivity after osmolarity 10 mM: 1 fraction
  fractional antibody reactivity after osmolarity 3000 mM: 0.9 fraction
  fractional antibody reactivity after pH 3.5: 1.2 fraction
  fractional antibody reactivity after pH 10.0: 1 fraction
[2]
  fractional antibody reactivity after 10 cycles of freeze-thaw: 1 fraction
  fractional antibody reactivity after 50 °C: 0.9 fraction
  fractional antibody reactivity after 70 °C: 0.1 fraction
  fractional antibody reactivity after osmolarity 10 mM: 0.7 fraction
  fractional antibody reactivity after osmolarity 3000 mM: 0.4 fraction
  fractional antibody reactivity after pH 3.5: 0.9 fraction
[3]
  fractional antibody reactivity after 10 cycles of freeze-thaw: 1 fraction
  fractional antibody reactivity after 50 °C: 1 fraction
  fractional antibody reactivity after 70 °C: 1 fraction
  fractional antibody reactivity after osmolarity 10 mM: 0.8 fraction
  fractional antibody reactivity after osmolarity 3000 mM: 0.8 fraction
  fractional antibody reactivity after pH 3.5: 0.9 fraction
  fractional antibody reactivity after pH 10.0: 0.9 fraction
[4]
  fractional antibody reactivity after 10 cycles of freeze-thaw: 1 fraction
  fractional antibody reactivity after 50 °C: 0.9 fraction
  fractional antibody reactivity after 70 °C: 0.9 fraction
  fractional antibody reactivity after osmolarity 10 mM: 0.7 fraction
  fractional antibody reactivity after osmolarity 3000 mM: 0.8 fraction
  fractional antibody reactivity after pH 3.5: 1 fraction
  fractional antibody reactivity after pH 10.0: 0.9 fraction
[5]
  fractional antibody reactivity after 10 cycles of freeze-thaw: 1 fraction
  fractional antibody reactivity after 50 °C: 0.6 fraction
  fractional antibody reactivity after 70 °C: 0.1 fraction
  fractional antibody reactivity after osmolarity 10 mM: 0.8 fraction
  fractional antibody reactivity after osmolarity 3000 mM: 0.5 fraction
  fractional antibody reactivity after pH 3.5: 1.2 fraction
  fractional antibody reactivity after pH 10.0: 1.3 fraction
[6]
  fractional antibody reactivity after 10 cycles of freeze-thaw: 1 fraction
  fractional antibody reactivity after 50 °C: 0.7 fraction
  fractional antibody reactivity after 70 °C: 0.1 fraction
  fractional antibody reactivity after osmolarity 10 mM: 0.9 fraction
  fractional antibody reactivity after osmolarity 3000 mM: 0.6 fraction
  fractional antibody reactivity after pH 3.5: 0.9 fraction
  fractional antibody reactivity after pH 10.0: 1.2 fraction
[7]
  Kd: 0.1 nM
[8]
  Kd: 0.1 nM
[9]
  Kd: 24.3 nM
[10]
  Kd: 10.8 nM
[11]
  Kd: 57.5 nM
[12]
  Kd: 420 nM
[13]
  Kd: 24.3 nM
[14]
  Kd: 0.4 nM
[15]
  Kd: 0.7 nM
[16]
  Kd: 0.8 nM
[17]
  Kd: 0.2 nM
[18]
  Kd: 0.8 nM
[19]
  Kd: 0.8 nM
[20]
  fractional D25 reactivity, 50 °C: 0.9
  fractional D25 reactivity, 70 °C: 0.9
  fractional D25 reactivity, freeze-thaw: 0.04
  fractional D25 reactivity, osmolality 10 mM: 0.6
  fractional D25 reactivity, osmolality 3000 mM: 0.5
  fractional D25 reactivity, pH 3.5: 0.7
  fractional D25 reactivity, pH 10.0: 0.8
[21]
  fractional D25 reactivity, 50 °C: 0.9
  fractional D25 reactivity, 70 °C: 0.9
  fractional D25 reactivity, freeze-thaw: 0
  fractional D25 reactivity, osmolality 10 mM: 0.5
  fractional D25 reactivity, osmolality 3000 mM: 0.5
  fractional D25 reactivity, pH 3.5: 0.7
  fractional D25 reactivity, pH 10.0: 0.7
[22]
  fractional D25 reactivity, 50 °C: 0.9
  fractional D25 reactivity, 70 °C: 0.9
  fractional D25 reactivity, freeze-thaw: 0.2
  fractional D25 reactivity, osmolality 10 mM: 1.4
  fractional D25 reactivity, osmolality 3000 mM: 0.7
  fractional D25 reactivity, pH 3.5: 1.5
  fractional D25 reactivity, pH 10.0: 0.7
[23]
  Kd: 0.7 nM
[24]
  Kd: 7.4 nM

B2: D25 antibody (antibody, V domains shown)
VH: B1 VH
VL: B1 VL
[25]
  ELISA signal (antigenicity): 0.416
[26]
  ELISA signal (antigenicity): 1.39
[27]
  ELISA signal (antigenicity): 1.84
[28]
  ELISA signal (antigenicity): 0.92
[29]
  ELISA signal (antigenicity): 2.94
[30]
  ELISA signal (antigenicity): 2.34
[31]
  ELISA signal (antigenicity): 3.6
[32]
  ELISA signal (antigenicity): 3.33
[33]
  ELISA signal (antigenicity): 0.957
[34]
  ELISA signal (antigenicity): 2.89
[35]
  ELISA signal (antigenicity): 0.502
[36]
  ELISA signal (antigenicity): 2.88

Source: patent US20190112340A1 (US Dept. of Health and Human Services, published 2019)
